{
  "source": "the DeepSol protein solubility set",
  "data": [
    {"assay": "soluble on expression in E. coli; label from the status in PepcDB or PDB records", "values": [
      {"sequence": "MAVSLFKQLQIVWDYHLVNQEIRKSDAIFVLCSYDLRVAEHAAQLYLDGYAPLLIFSGAQGRATEGLFTLSEAETFANVAKDMGVPSSAIIVETKATNTGENIFFTQALLKERNISVSSLILVQKPYMERRLLATFLKNWNDIEFCISSPNISFINYPTDEITFDHIASIILGELHRLKVYPTLGYQEAQEIPDEVWQAFENLTQLGFDEYLLTNDNLEHHHHHH", "soluble on expression in E. coli": "not soluble"},
      {"sequence": "MRKYSQRHIPVMVREVIEFLKPEDEKIILDCTVGEGGHSRAILEHCPGCRIIGIDVDSEVLRIAEEKLKEFSDRVSLFKVSYREADFLLKTLGIEKVDGILMDLGVSTYQLKGENRGFTFEREEPLDMRMDLESEVTAQKVLNELPEEELARIIFEYGEEKRFARRIARKIVENRPLNTTLDLVKAVREALPSYEIRRRKRHFATKTFQAIRIYVNRELENLKEFLKKAEDLLNPGGRIVVISFHSLEDRIVKETFRNSKKLRILTEKPVRPSEEEIRENPRARSGRLRAAERIEEGGD", "soluble on expression in E. coli": "soluble"},
      {"sequence": "MTLIILEGPDCCFKSTVAAKLSKELKYPIIKGSSFELAKSGNEKLFEHFNKLADEDNVIIDRFVYSNLVYAKKFKDYSILTERQLRFIEDKIKAKAKVVYLHADPSVIKKRLRVRGDEYIEGKDIDSILELYREVMSNAGLHTYSWDTGQWSSDEIAKDIIFLVELEHHHHHH", "soluble on expression in E. coli": "soluble"},
      {"sequence": "MGSDKIHHHHHHMQKLTRINDFNEVLNSRKSVKVFDENYKIPREEMDEIITKATKAPSSVNMQPWRIAVVQSDEMKEKVKESFGFNSRQLTTSSAMLIIFGDLQNYEKAEQIYGDAVEQQLMTEDIKAQLLDWILPYYKNLSREGMKDIVNIDSSLMAMQLMLTAKAHGYDTNPIGGFDKENIADIIGYDSDRYVPVLAIAIGKKAQDAHDSVRLPIDDVREFL", "soluble on expression in E. coli": "not soluble"},
      {"sequence": "GMMTDEARAKLAAIPMLAGYTGPLERLGGLTNLVFRAGDLCLRIPGKGTEEYINRANEAVAAREAAKAGVSPEVLHVDPATGVMVTRYIAGAQTMSPEKFKTRPGSPARAGEAFRKLHGSGAVFPFRFELFAMIDDYLKVLSTKNVTLPAGYHDVVREAGGVRSALAAHPLPLAACHCDPLCENFLDTGERMWIVDWEYSGMNDPLWDLGDLSVEGKFNANQDEELMRAYFGGEARPAERGRVVIYKAMCDLLWTLWGLIQLANDNPVDDFRAYADGRFARCKALMETPEFSRHLAAVRMG", "soluble on expression in E. coli": "soluble"},
      {"sequence": "MGSDKIHHHHHHMLQNPIHLRLERLESWQHVTFMACLCERMYPNYAMFCQQTGFGDGQIYRRILDLIWETLTVKDAKVNFDSQLEKFEEAIPSADDFDLYGVYPAIDACVALSELVHSRLSGETLEHAVEVSKTSITTVAMLEMTQAGREMSDEELKENPAVEQEWDIQWEIFRLLAECEERDIELIKGLRADLREAGESNIGIIFQQ", "soluble on expression in E. coli": "not soluble"},
      {"sequence": "MGSDKIHHHHHHMRATLKIAEPPVVSPSEDELRELENLYCSHGDTVHYTDKPKFFEGCEGSFVYDASQTPFLDLQMWYSAVNFGYRNERLNNAAHRQLDQLPQVASQYLHREKVELAALIARDAEQKFGHKGRVHFNVGGSQAVEDSLKLVRNFTGGKSLMFAFEGGYHGRTLGASAITSSYRYRRRYGHFSDRAQFIEFPYHFRGPKGMSKEEYGEVCVQKFARLFESEYNGVWDPKAGKSEYAAFYVEPIQGTGGYVIPPMNFFTGLKKVLDDHGILLVVDEIQMGVYRTGKLWSIEHFGVSPDVLVFGKAITNGLNPLSGIWAREEMINPTIFPPGSTHSTFASNPMGTAVALETMKMVGEGDFGASVMEKGARFLDGLKVLEKRHAIVGDVDGLGLALRMEICKEDGFTPDKATLDWMSDEGMKGDMVVDGKTYGLVLDVGGYHKNVITLAPNLMISNSEIDLALTLLDQLLTRAARR", "soluble on expression in E. coli": "not soluble"},
      {"sequence": "MGSDKIHHHHHHMNARTLDPTERLIEKEPYYEPVGEEIALFEAAYRQRIPVLLKGPTGCGKTRFMEHMAWRLQRPLITVSCHDDLTASDLVGRYLVKGGETVWVDGPLTRAVRCGGICYLDEIVEARKDTMVVIHPLADDRRTLAMEKLGQMLEAPAEFCLAISYNPGYQSVLKDLKQSTRQRFVALEFDYPSAALEQRIVATESGVSDAVADKLVRFAQMTRNLKGSGLEEGASTRLLVHAGKLISDGISPVTACKSAVAQAVTDDADMLKAIQELSSSVF", "soluble on expression in E. coli": "not soluble"},
      {"sequence": "MSLTVDFSRFPLAPGDRVLDLGCGAGRHAFECYRRGARVVALDQNAEEIREVAKWFAAMEEAGEAPAGATATAMEGDALALPFPDESFDVVIISEVMEHIPDDKGVLAEMVRVLKPGGRIAITVPRYGPEKVCWTLSDAYHEVEGGHIRIYRADQLLTRIREAGLKPYGTHHAHALHSPYWWLKCAFGVDNDKALPVRAYHKLLVWDIMKKPLATRVAEQALNPLIGKSFVAYATKPHLPPVDAEGHHHHHH", "soluble on expression in E. coli": "soluble"},
      {"sequence": "MGSDKIHHHHHHGAGISTESGIPDYRSKDVGLYARIAHKPIYFQDYMRSNRCRQRYWSRNFLAWPRFGQAAPNINHYALSKWEASDRFQWLITQNVDGLHLKAGSKMVTELHGSALQVKCTTCDYIESRQTYQDRLDYANPGFKEEHVAPGELAPDGDIILPLGTEKGFQIPECPSCGGLMKTDVTFFGENVNMDKVNFCYEKVNECDGILSLGTSLAVLS", "soluble on expression in E. coli": "not soluble"},
      {"sequence": "MALELSDIRQQITQIDRSLLKLLSERHRLAFDVVRSKEISQKSLRDVEREQQLLQELVQFAENENYQLEAQYITSIFQKIIEDSVLTQQVYLQNKLNEQRNQNLHIAFLGKRGSYSNLAARNYAARYQKQFVELGCQSFEQVFEKVQTGEADFGVLPLENTTSGAINEVYDLLQHTDLSLVGELAYPIKHCVLVNDKTDLNQIDTLYSHPQVIQQCSQFIHSLDRVHIEYCESSSHAMQLVASLNKPNIAALGNEDGGKLYGLSVLKTNIANQENNITRFIVVAKEPREVSSQIPTKTLLLMTTSQQAGALVDALLVFKKHQINMTKLESRPIYGKPWEEMFYLEIEANIHHPDTKQALEELKNYSNYLKILGCYPSEIVKPVSV", "soluble on expression in E. coli": "not soluble"},
      {"sequence": "MSKADENDANLTENGVHKSRSDSEINSHTSSIHKSSSQHRRLFIDDISTIEASAGDRVWATCSGAGDATELITIHFLGDQFEESAIDVVRKHSLVMFTVPSLKVDSELEVELRFSTSNDNVTTISFKYLPRKIQRSHTQEISLFDNLLEFATNGDTISLLQPFVAQISKQDIEGNTVFHVAAKNGQSFSLKLLLSVIPPDIKNEVINVQNTHGLTALHVAIRTGDPDAVHYLMNHGAKIDISDNHGSTALHYLGDAYNESIFKEILEPSRGQRFDVNQLNSEGFAPIHVAVRRLKLSLIEMLIEAGALIDFLDTEKKRNALMHAIEMNDFETIQLLVERGSGTNIEDESGETALSLAVKNVNYPVIGLLLDNGADPNRQNSKGICLADSEDSVIQNIINGDRPELPKKEAFGVPNDLAISRSPLFGRSHPDQAPGEESGRHRVVKRSREEILNDAQTLLAETDSMAPRVSRISTSESEDEQQPGPSTSSGTRRRRSEWDRNPKLSDSVCNLDYLTRIRVAKIFDDQCKWQRLAQQLNCDHMVELISICSSGDDSSPTMILLDQFEQLEDSSISRLRDAMNQMAEDDAVKLIDSRYVY", "soluble on expression in E. coli": "not soluble"},
      {"sequence": "MGSDKIHHHHHHMVNAAQAVMESSGQFHVEPEGVIRMSVPKAVGHFMIHPHLPEFLERYPKIDIQMLLEDRYVDLIDDGVDLALRITEQPPGGLMGRKLIDIDHLVCATPEYLSKHGTPNHPHDLKQHECIYLGEQASDSKWKFQQGNKSISVAVRGRYAANHTGVRLSAALQHLGIASLPYFVARHALQQGTLVQVLPDWYFKTYYSGGLWLLYPPTRHVQPKLSVLIQYLADKLAAEPTLFKLK", "soluble on expression in E. coli": "not soluble"},
      {"sequence": "MVEKELEEKVYKSIIKTIKDTPLEEFYTSGHRTCQGCESALVMRFLAKAAGPRTIVIGATGCMYVANTTYYTTSWIVPWVHTQLGGTGAAALGTAAALRALMRKGKIKQEPINVIAFCGDLGCADMGLSGVSNAMTYDYNLLIILYDNESSANTDIQETSMTPFGAQTSFSRPGKQRRIMKKRWKKSVVPMIIAGHRNVRYAATMTPAYPLDSMNKIRKALTIGGPTFIHSLDPCPKGWDYDPKFSHELGVLAVETGLWPLYEYIDGEIVYNEPTKSIVEGRMKRKPVKEYLEKQGRFSHFTEEDIEYVQRMVDEMYEEWEIPGVMPIKSINAKISDK", "soluble on expression in E. coli": "not soluble"},
      {"sequence": "MKKRYKNPEKSGSCGNFIQAIKMTDKVQPLESLSKKPEEPKIVVNLRRIKRKIMVMSGKGGVGKSTVAANLAVGLALRGHRVGLLDCDIHGPTVPTIFGLESARPGVSEEGILPIEVLPNLSVMSIGFLLENKDSPIIWRGPAKMGAIKQFLEEVFWGALDFLIIDLPPGTGDEPLSVAQLIPNCDGSVLVTTPQDVALISVRKSITFSEKLNVPIIGLVDNMHGLICPHCGKPIEVFGSGGVEKASKDFNIPILARLPIEPGVAEMEDRGTVVQDQLKHGTEWQKNFDNVVDAVEKILEKELEHHHHHH", "soluble on expression in E. coli": "soluble"},
      {"sequence": "MTQAEIKLCSLLLQEHFGEIVEKIGVHLIRTGSQPLRVIAHDTGTSLDQVKKALCVLVQHNLVSYQVHKRGVVEYEAQCSRVLRMLRYPRYIYTTKTLYSDTGELIVEELLLNGKLTMSAVVKKVADRLTETMEDGKTMDYAEVSNTFVRLADTHFVQRCPSVPTTENSDPGPPPPAPTLVINEKDMYLVPKLSLIGKGKRRRSSDEDAAGEPKAKRPKYTTDNKEPIPDDGIYWQANLDRFHQHFRDQAIVSAVANRMDQTSSEIVRTMLRMSEITTSSSAPFTQPLSSNEIFRSLPVGYNISKQVLDQYLTLLADDPLEFVGKSGDSGGGMYVINLHKALASLATATLKSVVQERFGSRCARIFRLVLQKKHIEQKQVEDFAMIPAKEAKDMLYKMLSENFMSLQVGCQ", "soluble on expression in E. coli": "not soluble"},
      {"sequence": "MLSFEQSYAPSRNMKLLLVEPSGSYFNDSCCSEPNSPDSGFSSDDSISSDASFAERLTRSKTLPSALRRSRSKQSVKRVRFADSLGLDLENLQYFVKEDLHLQKFNIHFSTPSSSTPPPQLPHFPKQLINQPAPRLVLHNFPYRSEQEYQVKTRDSRVCVAALRASGSSIVGQVNLLNVAFDKVVVVRYTIDGWATQDEIVASYSHRLFDTEDIDAFNFTIAIPVKLSEGKCEFCVQYQVAGAEFWDNNGGDNYIVNVSTKGPSSPFTRCYGASTGLPDAPRGSTRRQQQRRWGRALEESDEETPYVSSAPRRGAHFH", "soluble on expression in E. coli": "not soluble"},
      {"sequence": "MKGTQMLALNKKCWDIVAPYFFQVDCLPKYGPYTASEDEIHLFDSIKGKKVLDIGCGSGHSLQYMAEHGAEELWGLDLSSTQIETAHETLQSWNPKLICGAMEEERDIPKGYFDIVYSIYALGWTSDLRKTLELIYSYVKPGGSFIFSWEHPVYSNLMYGTEEIAFSSSYHEETPITFETFKGEDVQATLYKRKMSTYINELNRVGFTIERIEEPLEHHHHHH", "soluble on expression in E. coli": "not soluble"},
      {"sequence": "MGSDKIHHHHHHMNRIGIIGAMQIEIDLLLEKLAIQEKQTIAGMPFYVGEFMGMEVIVTRCGVGKVNAAACTQTLIHKFDVDAIINTGVAGGLHPDVKVGDVVISTNVTHHDVSKTQMKNLFPFQEEFHASKKLMELARTACNSSSLHIGVHEGRIVSGECFVEDSKLKAKLIDEYAAHCTEMEGAAIGHVAYINEVPFLVIRCISDSADDEAQISYDDFAKTAANYCSEIIVEMLKNISSKTYSSKGGNEMLQAFIFDMDGTLFQTDKILELSLDDTFDHLRSLQLWDTVTPIEKYREIMGVPLPKVWETLLPNHSIEVREQTDAYFLERLIENIKSGKGALYPNVKEIFTYIKENNCSIYIASNGLTEYLRAIVSYYALDQWVTETFSIEQINSLNKSDLVKSILNKYDIKEAAIVGDRLSDINAAKDNGLFAIGCNFDFAQEDELVQADIVIDDLMELKGILPAVQR", "soluble on expression in E. coli": "not soluble"},
      {"sequence": "MKVVVQIKDFDKVPQALRSVINLYNDIKDAEIEVVLHQSAIKALLKDSDTRSIIEDLIKKNILIVGCENSIRSQNLSHDQLIPGIKIVTSGVGEIVRKQSEGWIYLAL", "soluble on expression in E. coli": "soluble"},
      {"sequence": "IAAVGDGVCMLDRGFRIVYQNRAHERLLGEHGGERCSDAYGEDPDACRDCPMARAMDTGEVCTGSRRFISKGETRLLEITSSPVRNAAGEIVAGVEVVRDVT", "soluble on expression in E. coli": "not soluble"}
    ]}
  ]
}
